Tests used:
[1] = target: T1, cynomolgus monkey FcγRIIIaS extracellular domain, His-tagged (cynomolgus monkey, UniProt Q8SPW2 21-206 at identity 1.00)); assay: SPR (BIACORE), captured antibody, FcgR as analyte
T1 construct: also called cyno FcγRIIIaS; cynoFcγRIIIaS; not shown: C-terminal His-tag
T1 chain: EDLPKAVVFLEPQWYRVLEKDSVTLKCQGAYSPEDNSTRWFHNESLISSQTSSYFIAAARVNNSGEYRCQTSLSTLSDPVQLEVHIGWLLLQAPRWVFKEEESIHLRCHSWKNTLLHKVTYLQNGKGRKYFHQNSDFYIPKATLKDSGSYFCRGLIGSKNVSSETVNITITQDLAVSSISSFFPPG

[2] = target: T2, cynomolgus monkey FcγRIIa1 extracellular domain, His-tagged (cynomolgus monkey); assay: SPR (BIACORE); KD of SG1 divided by KD of variant;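 also: relative to parent M103205H795-SG1 carrying the SG1 human heavy chain constant region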
T2 construct: also called cyno FcγRIIa1; cynoFcgRIIa1; not shown: C-terminal His-tag
T2 chain: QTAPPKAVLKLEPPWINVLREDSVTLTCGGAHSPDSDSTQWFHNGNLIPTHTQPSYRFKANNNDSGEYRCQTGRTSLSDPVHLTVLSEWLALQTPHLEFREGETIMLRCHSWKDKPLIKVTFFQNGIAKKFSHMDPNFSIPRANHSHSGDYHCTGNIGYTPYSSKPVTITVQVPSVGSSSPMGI
Method: (§1) The kinetic analysis of interactions between these antibodies and FcγR was carried out using BIACORE® T200 or BIACORE® 4000 (GE Healthcare). HBS-EP+ (GE Healthcare) was used as the running buffer, and the measurement temperature was set to 25° C. A chip produced by immobilizing Protein A. Protein A/G or mouse anti-human IgG kappa light chain (BD Biosciences) onto a Series S Sensor Chip CM4 or CM5 (GE Healthcare) by the amine-coupling method was used. […] After the measurement, the antibody captured on the chip was washed off by allowing reaction with 10 mM glycine-HCl, pH1.5 and 25 mM NaOH so that the chip was regenerated and used repeatedly. The sensorgrams obtained as measurement results were analyzed by the 1:1 Langmuir binding model using the BIACORE® Evaluation Software to calculate the binding rate constant ka (L/mol/s) and dissociation rate constant kd (l/s), and the dissociation constant KD (mol/L) was calculated from these values. […] Regarding such interactions, KD values were calculated using the following 1:1 binding model described in BIACORE® T100 Software Handbook BR1006-48 Edition AE.

[3] = target: T3, cynomolgus monkey FcγRIIa2 extracellular domain, His-tagged (cynomolgus monkey); assay: SPR (BIACORE); KD of SG1 divided by KD of variant;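 also: relative to parent M103205H795-SG1 carrying the SG1 human heavy chain constant region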
T3 construct: also called cyno FcγRIIa2; cynoFcgRIIa2; not shown: C-terminal His-tag
T3 chain: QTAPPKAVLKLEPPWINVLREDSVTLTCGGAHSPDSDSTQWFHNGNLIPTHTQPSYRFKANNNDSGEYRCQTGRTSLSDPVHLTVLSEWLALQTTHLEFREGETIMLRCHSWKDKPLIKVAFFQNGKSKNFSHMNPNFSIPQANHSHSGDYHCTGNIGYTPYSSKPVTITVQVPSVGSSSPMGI
Method: as §1

[4] = target: T4, cynomolgus monkey FcγRIIa3 extracellular domain, His-tagged (cynomolgus monkey); assay: SPR (BIACORE); KD of SG1 divided by KD of variant;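 also: relative to parent M103205H795-SG1 carrying the SG1 human heavy chain constant region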
T4 construct: also called cyno FcγRIIa3; cynoFcgRIIa3; not shown: C-terminal His-tag
T4 chain: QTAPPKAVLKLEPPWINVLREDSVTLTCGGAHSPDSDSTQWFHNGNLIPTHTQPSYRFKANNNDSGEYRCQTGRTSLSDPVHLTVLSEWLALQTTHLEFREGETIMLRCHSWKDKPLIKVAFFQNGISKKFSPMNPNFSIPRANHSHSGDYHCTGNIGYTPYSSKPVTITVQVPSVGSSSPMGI
Method: as §1

[5] = target: T5, cynomolgus monkey FcγRIIb extracellular domain, His-tagged (cynomolgus monkey); assay: SPR (BIACORE); KD of SG1 divided by KD of variant;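 also: relative to parent M103205H795-SG1 carrying the SG1 human heavy chain constant region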
T5 construct: also called cyno FcγRIIb; cynoFcγRIIb; not shown: C-terminal His-tag
T5 chain: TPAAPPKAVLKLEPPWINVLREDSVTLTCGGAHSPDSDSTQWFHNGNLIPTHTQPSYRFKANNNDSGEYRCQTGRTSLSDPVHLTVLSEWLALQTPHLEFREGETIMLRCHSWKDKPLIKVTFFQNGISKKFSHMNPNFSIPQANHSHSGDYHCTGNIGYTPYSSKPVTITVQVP
Method: as §1

[6] = target: T1, cynomolgus monkey FcγRIIIaS …; assay: SPR (BIACORE); KD of SG1 divided by KD of variant
Method: as §1

[7] = target: T6, human FcγRIIaH extracellular domain, His-tagged (human, UniProt P12318 34-217); assay: SPR (BIACORE); KD of SG1 divided by KD of variant
T6 construct: also called human FcγRIIa (type H); FcgRIIaH; not shown: C-terminal His-tag
T6 sequence: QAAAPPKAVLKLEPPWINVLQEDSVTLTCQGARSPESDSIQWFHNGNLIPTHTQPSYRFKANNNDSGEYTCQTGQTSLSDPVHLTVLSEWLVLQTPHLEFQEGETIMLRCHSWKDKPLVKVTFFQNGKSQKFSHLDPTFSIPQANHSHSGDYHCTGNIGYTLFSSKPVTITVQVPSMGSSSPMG
Method: as §1

[8] = target: T7, human FcγRIIaR extracellular domain, His-tagged (human, UniProt P12318 34-217); assay: SPR (BIACORE); KD of SG1 divided by KD of variant
T7 construct: also called human FcγRIIa (type R); FcgRIIaR; not shown: C-terminal His-tag
T7 chain: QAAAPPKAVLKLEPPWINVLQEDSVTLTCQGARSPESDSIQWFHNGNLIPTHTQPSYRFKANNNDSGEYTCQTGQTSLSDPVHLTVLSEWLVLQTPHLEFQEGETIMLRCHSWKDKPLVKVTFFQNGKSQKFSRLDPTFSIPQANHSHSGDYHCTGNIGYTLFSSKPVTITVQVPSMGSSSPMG
Method: as §1

[9] = target: T8, human FcγRIIb extracellular domain, His-tagged (human, UniProt P31994 43-217); assay: SPR (BIACORE); KD of SG1 divided by KD of variant
T8 construct: also called FcgRIIb (human); not shown: C-terminal His-tag
T8 sequence: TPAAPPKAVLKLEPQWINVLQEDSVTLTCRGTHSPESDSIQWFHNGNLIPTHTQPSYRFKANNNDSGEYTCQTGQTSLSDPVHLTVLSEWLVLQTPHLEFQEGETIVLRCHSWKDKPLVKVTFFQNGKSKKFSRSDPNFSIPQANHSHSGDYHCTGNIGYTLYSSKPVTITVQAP
Method: as §1

B1: M103205H795-MY463/M103202L889-SK1 (antibody, human IgG1, kappa)
heavy: QVTLKESGPVLVKPTETLTLTCTVSGIDLSHDDISWVRQAPGKGLEWVGIISYAGSTYYASWAKGRLTISKDTSKNQVVLTMTNMDPVDTATYYCARGVPAYSHGGDLWGQGTLVTVSSASTKGPSVFPLAPSSKSTSGGTAALGCLVKDYFPEPVTVSWNSGALTSGVHTFPAVLQSSGLYSLSSVVTVPSSSLGTQTYICNVNHKPSNTKVDKKVEPKSCDKTHTCPPCPHPELLTGPSVFLFPPKPKDTLMISRTPEVTCVVVDVSDEDPEVKFNWYVDGVEVHNAKTKPREEQYNSTYRVVSVLTVLHQDWLNGKEYKCKVSNKALPKPIEKTISKAKGQPREPQVYTLPPSREEMTKNQVSLTCLVKGFYPSDIAVEWESNGQPENNYKTTPPVLDSDGSFFLYSKLTVDKSRWQQGNVFSCSVMHEALHNHYTQKSLSLSP
light: DIVMTQSPATLSLSPGERATLSCTSSQSVYHANWLSWFQQKPGQPPKLLIYWASTLAYGVPSRFSGSGSGTDFTLTISSLQPEDAATYYCAGGYGGGRYAFGQGTKVEIKRTVAAPSVFIFPPSDEQLKSGTASVVCLLNNFYPREAKVQWKVDNALQSGNSQESVTEQDSKDSTYSLSSTLTLSKADYEKHKVYACEVTHQGLSSPVTKSFNRGEC
notes: copies: 2 + 2
Kd [1]: 1600 nM | KD fold (SG1 = 1) [2]: 1.5 fold | KD fold (SG1 = 1) [3]: 2.3 fold | KD fold (SG1 = 1) [4]: 3.9 fold | KD fold (SG1 = 1) [5]: 3.1 fold | KD fold (SG1 = 1) [6]: 0.2 fold | KD fold (SG1 = 1) [7]: 3.1 fold | KD fold (SG1 = 1) [8]: 2.2 fold | KD fold (SG1 = 1) [9]: 2 fold

B2: M103205H795-MY464/M103202L889-SK1 (antibody, human IgG1, kappa)
heavy: QVTLKESGPVLVKPTETLTLTCTVSGIDLSHDDISWVRQAPGKGLEWVGIISYAGSTYYASWAKGRLTISKDTSKNQVVLTMTNMDPVDTATYYCARGVPAYSHGGDLWGQGTLVTVSSASTKGPSVFPLAPSSKSTSGGTAALGCLVKDYFPEPVTVSWNSGALTSGVHTFPAVLQSSGLYSLSSVVTVPSSSLGTQTYICNVNHKPSNTKVDKKVEPKSCDKTHTCPPCPIPELLTGPSVFLFPPKPKDTLMISRTPEVTCVVVDVSDEDPEVKFNWYVDGVEVHNAKTKPREEQYNSTYRVVSVLTVLHQDWLNGKEYKCKVSNKALPKPIEKTISKAKGQPREPQVYTLPPSREEMTKNQVSLTCLVKGFYPSDIAVEWESNGQPENNYKTTPPVLDSDGSFFLYSKLTVDKSRWQQGNVFSCSVMHEALHNHYTQKSLSLSP
light: DIVMTQSPATLSLSPGERATLSCTSSQSVYHANWLSWFQQKPGQPPKLLIYWASTLAYGVPSRFSGSGSGTDFTLTISSLQPEDAATYYCAGGYGGGRYAFGQGTKVEIKRTVAAPSVFIFPPSDEQLKSGTASVVCLLNNFYPREAKVQWKVDNALQSGNSQESVTEQDSKDSTYSLSSTLTLSKADYEKHKVYACEVTHQGLSSPVTKSFNRGEC
notes: copies: 2 + 2
Kd [1]: 1700 nM | KD fold (SG1 = 1) [2]: 1.7 fold | KD fold (SG1 = 1) [3]: 3.4 fold | KD fold (SG1 = 1) [4]: 4.4 fold | KD fold (SG1 = 1) [5]: 3.6 fold | KD fold (SG1 = 1) [6]: 0.2 fold | KD fold (SG1 = 1) [7]: 4.1 fold | KD fold (SG1 = 1) [8]: 4.2 fold | KD fold (SG1 = 1) [9]: 2.9 fold

B3: M103205H795-MY465/M103202L889-SK1 (antibody, human IgG1, kappa)
heavy: QVTLKESGPVLVKPTETLTLTCTVSGIDLSHDDISWVRQAPGKGLEWVGIISYAGSTYYASWAKGRLTISKDTSKNQVVLTMTNMDPVDTATYYCARGVPAYSHGGDLWGQGTLVTVSSASTKGPSVFPLAPSSKSTSGGTAALGCLVKDYFPEPVTVSWNSGALTSGVHTFPAVLQSSGLYSLSSVVTVPSSSLGTQTYICNVNHKPSNTKVDKKVEPKSCDKTHTCPPCPKPELLTGPSVFLFPPKPKDTLMISRTPEVTCVVVDVSDEDPEVKFNWYVDGVEVHNAKTKPREEQYNSTYRVVSVLTVLHQDWLNGKEYKCKVSNKALPKPIEKTISKAKGQPREPQVYTLPPSREEMTKNQVSLTCLVKGFYPSDIAVEWESNGQPENNYKTTPPVLDSDGSFFLYSKLTVDKSRWQQGNVFSCSVMHEALHNHYTQKSLSLSP
light: DIVMTQSPATLSLSPGERATLSCTSSQSVYHANWLSWFQQKPGQPPKLLIYWASTLAYGVPSRFSGSGSGTDFTLTISSLQPEDAATYYCAGGYGGGRYAFGQGTKVEIKRTVAAPSVFIFPPSDEQLKSGTASVVCLLNNFYPREAKVQWKVDNALQSGNSQESVTEQDSKDSTYSLSSTLTLSKADYEKHKVYACEVTHQGLSSPVTKSFNRGEC
notes: copies: 2 + 2
Kd [1]: 1900 nM | KD fold (SG1 = 1) [2]: 1.6 fold | KD fold (SG1 = 1) [3]: 1.3 fold | KD fold (SG1 = 1) [4]: 3.3 fold | KD fold (SG1 = 1) [5]: 2.6 fold | KD fold (SG1 = 1) [6]: 0.2 fold | KD fold (SG1 = 1) [7]: 2.8 fold | KD fold (SG1 = 1) [8]: 1.8 fold | KD fold (SG1 = 1) [9]: 1.6 fold

B4: M103205H795-MY466/M103202L889-SK1 (antibody, human IgG1, kappa)
heavy: QVTLKESGPVLVKPTETLTLTCTVSGIDLSHDDISWVRQAPGKGLEWVGIISYAGSTYYASWAKGRLTISKDTSKNQVVLTMTNMDPVDTATYYCARGVPAYSHGGDLWGQGTLVTVSSASTKGPSVFPLAPSSKSTSGGTAALGCLVKDYFPEPVTVSWNSGALTSGVHTFPAVLQSSGLYSLSSVVTVPSSSLGTQTYICNVNHKPSNTKVDKKVEPKSCDKTHTCPPCPLPELLTGPSVFLFPPKPKDTLMISRTPEVTCVVVDVSDEDPEVKFNWYVDGVEVHNAKTKPREEQYNSTYRVVSVLTVLHQDWLNGKEYKCKVSNKALPKPIEKTISKAKGQPREPQVYTLPPSREEMTKNQVSLTCLVKGFYPSDIAVEWESNGQPENNYKTTPPVLDSDGSFFLYSKLTVDKSRWQQGNVFSCSVMHEALHNHYTQKSLSLSP
light: DIVMTQSPATLSLSPGERATLSCTSSQSVYHANWLSWFQQKPGQPPKLLIYWASTLAYGVPSRFSGSGSGTDFTLTISSLQPEDAATYYCAGGYGGGRYAFGQGTKVEIKRTVAAPSVFIFPPSDEQLKSGTASVVCLLNNFYPREAKVQWKVDNALQSGNSQESVTEQDSKDSTYSLSSTLTLSKADYEKHKVYACEVTHQGLSSPVTKSFNRGEC
notes: copies: 2 + 2
Kd [1]: 1800 nM | KD fold (SG1 = 1) [2]: 1.7 fold | KD fold (SG1 = 1) [3]: 2.3 fold | KD fold (SG1 = 1) [4]: 3.9 fold | KD fold (SG1 = 1) [5]: 3.5 fold | KD fold (SG1 = 1) [6]: 0.2 fold | KD fold (SG1 = 1) [7]: 4.1 fold | KD fold (SG1 = 1) [8]: 4.2 fold | KD fold (SG1 = 1) [9]: 3.3 fold

— patent US20200317768A1 (published 2020)
